In the RNAGym collection of RNA variant scans (doi:10.1093/molbev/msab373):

B1: Azoarcus group I ribozyme (parent)
chain: GUGCCUUGCGCCGGGAAACCACGCAAGGGAUGGUGUCAAAUUCGGCGAAACCUAAGCGCCCGCCCGGGCGUAUGGCAACGCCGAGCCAAGCUUCGGCGCCUGCGCCGAUGAAGGUGUAGAGACUAGACGGCACCCACCUAAGGCAAACGCUAUGGUGAAGGCAUAGUCCAGGGAGUGGCGAAAGUCACACAAACCGG

Variants of: B1
Experiment: reverse-splicing fitness (ratio to wild type); higher = more active; in vitro selection; Mg2+ level not given
Outline: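 An in vitro group I ribozyme library with randomized positions was T7-transcribed and gel-purified. In triplicate, 10 pmol RNA in EPPS pH 7.5 was reacted with 50 pmoles of a 30-nt RNA substrate for 1 h at 37 °C across several added MgCl2 levels (1–48 mM), then stopped with EDTA. Products were reverse transcribed from a substrate-complementary primer, PCR-amplified and sequenced (HiSeq 4000). Fitness is a variant's read proportion after selection over that before, normalised to wild type.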

Variant | reverse-splicing fitness
GUGCCUUGCGCCGGGAAACCACGCAAGGGAUGGUGUCAAAUUCGGCGAAACCUAAGCGCCCGCCCGGGCGUAUGGCAACGCUGAGCCAAGCUUCGGCGCCUGCGCCGAUGCAGGUGUAGAGACUAGACGGCACCCACCUAAGGCCAACGUUAUGGUGAAGGCAUAGUCUAGGGAGCGGCGAAAGUCACACAAACCGG [C82U A111C A145C C150U C169U U176C] | 0.00946
GUGCCUUGCGCCGGGAAACCACGCAAGGGAUGGUGUCAAAUUCGGCGAAACCUAAGCGCCCGCCCGGGCGUAUGGCAACGCUGAGCCAAGCUUCGGCGCCUGCGCCGAUGCAGGUGUAGAGACUAGACGGCACCCACCUAAGGCCAACGUUAUGGUGAAGGCAUAGUCUAGGGAGGGGCGAAAGUCACACAAACCGG [C82U A111C A145C C150U C169U U176G] | 0.00631
GUGCCUUGCGCCGGGAAACCACGCAAGGGAUGGUGUCAAAUUCGGCGAAACCUAAGCGCCCGCCCGGGCGUAUGGCAACGCUGAGCCAAGCUUCGGCGCCUGCGCCGAUGCAGGUGUAGAGACUAGACGGCACCCACCUAAGGCCAACGUUAUGGUGAAGGCAUAGUCUAGGGAGAGGCGAAAGUCACACAAACCGG [C82U A111C A145C C150U C169U U176A] | 0.0154
GUGCCUUGCGCCGGGAAACCACGCAAGGGAUGGUGUCAAAUUCGGCGAAACCUAAGCGCCCGCCCGGGCGUAUGGCAACGCUGAGCCAAGCUUCGGCGCCUGCGCCGAUGCAGGUGUAGAGACUAGACGGCACCCACCUAAGGCCAACGGUAUGGUGAAGGCAUAGUCCAGGGAGCGGCGAAAGUCACACAAACCGG [C82U A111C A145C C150G U176C] | 0.0151
GUGCCUUGCGCCGGGAAACCACGCAAGGGAUGGUGUCAAAUUCGGCGAAACCUAAGCGCCCGCCCGGGCGUAUGGCAACGCUGAGCCAAGCUUCGGCGCCUGCGCCGAUGCAGGUGUAGAGACUAGACGGCACCCACCUAAGGCCAACGGUAUGGUGAAGGCAUAGUCCAGGGAGGGGCGAAAGUCACACAAACCGG [C82U A111C A145C C150G U176G] | 0.00264
GUGCCUUGCGCCGGGAAACCACGCAAGGGAUGGUGUCAAAUUCGGCGAAACCUAAGCGCCCGCCCGGGCGUAUGGCAACGCUGAGCCAAGCUUCGGCGCCUGCGCCGAUGCAGGUGUAGAGACUAGACGGCACCCACCUAAGGCCAACGGUAUGGUGAAGGCAUAGUCCAGGGAGAGGCGAAAGUCACACAAACCGG [C82U A111C A145C C150G U176A] | 0.00961
GUGCCUUGCGCCGGGAAACCACGCAAGGGAUGGUGUCAAAUUCGGCGAAACCUAAGCGCCCGCCCGGGCGUAUGGCAACGCUGAGCCAAGCUUCGGCGCCUGCGCCGAUGCAGGUGUAGAGACUAGACGGCACCCACCUAAGGCCAACGUUAUGGUGAAGGCAUAGUCAAGGGAGCGGCGAAAGUCACACAAACCGG [C82U A111C A145C C150U C169A U176C] | 0.01
GUGCCUUGCGCCGGGAAACCACGCAAGGGAUGGUGUCAAAUUCGGCGAAACCUAAGCGCCCGCCCGGGCGUAUGGCAACGCUGAGCCAAGCUUCGGCGCCUGCGCCGAUGCAGGUGUAGAGACUAGACGGCACCCACCUAAGGCCAACGUUAUGGUGAAGGCAUAGUCAAGGGAGAGGCGAAAGUCACACAAACCGG [C82U A111C A145C C150U C169A U176A] | 0.011
GUGCCUUGCGCCGGGAAACCACGCAAGGGAUGGUGUCAAAUUCGGCGAAACCUAAGCGCCCGCCCGGGCGUAUGGCAACGCUGAGCCAAGCUUCGGCGCCUGCGCCGAUGCAGGUGUAGAGACUAGACGGCACCCACCUAAGGCCAACGUUAUGGUGAAGGCAUAGUCAAGGGAGGGGCGAAAGUCACACAAACCGG [C82U A111C A145C C150U C169A U176G] | 0.00687
GUGCCUUGCGCCGGGAAACCACGCAAGGGAUGGUGUCAAAUUCGGCGAAACCUAAGCGCCCGCCCGGGCGUAUGGCAACGCUGAGCCAAGCUUCGGCGCCUGCGCCGAUGCAGGUGUAGAGACUAGACGGCACCCACCUAAGGCCAACGAUAUGGUGAAGGCAUAGUCCAGGGAGGGGCGAAAGUCACACAAACCGG [C82U A111C A145C C150A U176G] | 0.00685
GUGCCUUGCGCCGGGAAACCACGCAAGGGAUGGUGUCAAAUUCGGCGAAACCUAAGCGCCCGCCCGGGCGUAUGGCAACGCUGAGCCAAGCUUCGGCGCCUGCGCCGAUGCAGGUGUAGAGACUAGACGGCACCCACCUAAGGCCAACGGUAUGGUGAAGGCAUAGUCCAGGGAGUGGCGAAAGUCACACAAACCGG [C82U A111C A145C C150G] | 0.024
GUGCCUUGCGCCGGGAAACCACGCAAGGGAUGGUGUCAAAUUCGGCGAAACCUAAGCGCCCGCCCGGGCGUAUGGCAACGCUGAGCCAAGCUUCGGCGCCUGCGCCGAUGCAGGUGUAGAGACUAGACGGCACCCACCUAAGGCCAACGUUAUGGUGAAGGCAUAGUCCAGGGAGUGGCGAAAGUCACACAAACCGG [C82U A111C A145C C150U] | 0.0562
GUGCCUUGCGCCGGGAAACCACGCAAGGGAUGGUGUCAAAUUCGGCGAAACCUAAGCGCCCGCCCGGGCGUAUGGCAACGCUGAGCCAAGCUUCGGCGCCUGCGCCGAUGCAGGUGUAGAGACUAGACGGCACCCACCUAAGGCCAACGGUAUGGUGAAGGCAUAGUCAAGGGAGGGGCGAAAGUCACACAAACCGG [C82U A111C A145C C150G C169A U176G] | 0.00657
GUGCCUUGCGCCGGGAAACCACGCAAGGGAUGGUGUCAAAUUCGGCGAAACCUAAGCGCCCGCCCGGGCGUAUGGCAACGCUGAGCCAAGCUUCGGCGCCUGCGCCGAUGCAGGUGUAGAGACUAGACGGCACCCACCUAAGGCCAACGGUAUGGUGAAGGCAUAGUCAAGGGAGCGGCGAAAGUCACACAAACCGG [C82U A111C A145C C150G C169A U176C] | 0.0077
GUGCCUUGCGCCGGGAAACCACGCAAGGGAUGGUGUCAAAUUCGGCGAAACCUAAGCGCCCGCCCGGGCGUAUGGCAACGCUGAGCCAAGCUUCGGCGCCUGCGCCGAUGCAGGUGUAGAGACUAGACGGCACCCACCUAAGGCCAACGGUAUGGUGAAGGCAUAGUCAAGGGAGAGGCGAAAGUCACACAAACCGG [C82U A111C A145C C150G C169A U176A] | 0.00873
